Data published in article PMC8303780, “Mutational Analysis of Redβ Single Strand Annealing Protein: Roles of the 14 Lysine Residues in DNA Binding and Recombination In Vivo”.

T1: Redβ K172A K172A (bacteriophage λ) (UniProt P03698)
T1 sequence: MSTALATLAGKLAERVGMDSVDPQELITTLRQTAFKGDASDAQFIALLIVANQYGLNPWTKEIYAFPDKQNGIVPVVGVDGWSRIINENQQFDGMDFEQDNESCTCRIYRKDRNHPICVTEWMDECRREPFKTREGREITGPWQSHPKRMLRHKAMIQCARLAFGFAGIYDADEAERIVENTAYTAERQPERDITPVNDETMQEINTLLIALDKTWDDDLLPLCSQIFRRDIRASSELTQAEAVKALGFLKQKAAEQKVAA

T2: Redβ K36A K36A (bacteriophage λ) (UniProt P03698)
T2 sequence: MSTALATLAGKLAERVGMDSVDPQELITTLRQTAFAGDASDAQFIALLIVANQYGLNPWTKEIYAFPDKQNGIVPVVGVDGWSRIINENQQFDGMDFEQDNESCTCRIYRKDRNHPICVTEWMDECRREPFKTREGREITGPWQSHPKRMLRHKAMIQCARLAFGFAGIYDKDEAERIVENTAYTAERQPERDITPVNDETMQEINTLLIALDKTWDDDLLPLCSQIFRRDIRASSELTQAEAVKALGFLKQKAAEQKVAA

T3: Redβ K61A K61A (bacteriophage λ) (UniProt P03698)
T3 sequence: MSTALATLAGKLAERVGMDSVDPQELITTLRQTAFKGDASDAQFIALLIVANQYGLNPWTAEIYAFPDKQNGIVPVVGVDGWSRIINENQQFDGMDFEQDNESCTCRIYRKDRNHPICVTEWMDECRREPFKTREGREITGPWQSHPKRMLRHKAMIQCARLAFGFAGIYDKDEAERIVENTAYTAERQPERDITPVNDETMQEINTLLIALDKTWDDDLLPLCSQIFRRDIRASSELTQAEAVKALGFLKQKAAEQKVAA

T4: Redβ K214A K214A (bacteriophage λ) (UniProt P03698)
T4 sequence: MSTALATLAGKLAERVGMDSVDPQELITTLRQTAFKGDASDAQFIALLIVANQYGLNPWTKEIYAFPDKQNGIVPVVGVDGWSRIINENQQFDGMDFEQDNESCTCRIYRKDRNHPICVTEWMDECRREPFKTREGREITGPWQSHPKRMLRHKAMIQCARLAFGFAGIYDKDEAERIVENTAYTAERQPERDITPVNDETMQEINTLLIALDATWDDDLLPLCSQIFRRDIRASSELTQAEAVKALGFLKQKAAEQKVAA

T5: Redβ K258A K258A (bacteriophage λ) (UniProt P03698)
T5 sequence: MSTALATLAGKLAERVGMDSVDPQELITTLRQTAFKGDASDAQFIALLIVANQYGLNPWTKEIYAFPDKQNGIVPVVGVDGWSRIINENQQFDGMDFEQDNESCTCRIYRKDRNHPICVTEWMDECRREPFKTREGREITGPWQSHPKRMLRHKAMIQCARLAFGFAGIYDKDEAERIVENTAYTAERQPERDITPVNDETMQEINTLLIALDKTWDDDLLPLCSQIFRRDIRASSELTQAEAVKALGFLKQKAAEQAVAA

T6: Redβ K111A K111A (bacteriophage λ) (UniProt P03698)
T6 sequence: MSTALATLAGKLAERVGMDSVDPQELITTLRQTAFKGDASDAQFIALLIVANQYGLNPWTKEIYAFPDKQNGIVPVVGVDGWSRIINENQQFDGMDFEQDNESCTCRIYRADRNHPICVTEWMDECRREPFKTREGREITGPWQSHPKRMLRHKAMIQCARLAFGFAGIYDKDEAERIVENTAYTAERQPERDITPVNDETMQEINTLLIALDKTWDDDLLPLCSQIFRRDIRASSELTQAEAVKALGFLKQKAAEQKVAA

T7: Redβ K11A (bacteriophage λ, UniProt P03698 1-261, K11A)
T7 sequence: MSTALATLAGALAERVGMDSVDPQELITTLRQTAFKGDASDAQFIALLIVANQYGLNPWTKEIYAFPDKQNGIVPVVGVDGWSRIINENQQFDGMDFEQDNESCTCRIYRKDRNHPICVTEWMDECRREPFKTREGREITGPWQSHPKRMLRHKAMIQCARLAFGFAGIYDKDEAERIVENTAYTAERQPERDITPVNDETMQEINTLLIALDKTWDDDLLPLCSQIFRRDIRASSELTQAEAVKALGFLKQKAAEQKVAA

T8: Redβ K111A (bacteriophage λ, UniProt P03698 1-261, K111A)
T8 sequence: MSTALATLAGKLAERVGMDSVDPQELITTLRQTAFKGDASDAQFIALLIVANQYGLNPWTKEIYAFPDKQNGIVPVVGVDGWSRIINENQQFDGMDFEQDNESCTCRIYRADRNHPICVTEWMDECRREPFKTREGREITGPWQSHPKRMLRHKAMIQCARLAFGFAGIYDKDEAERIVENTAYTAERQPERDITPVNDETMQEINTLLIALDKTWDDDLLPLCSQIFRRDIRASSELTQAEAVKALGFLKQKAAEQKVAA

T9: Redβ K69A (bacteriophage λ, UniProt P03698 1-261, K69A)
T9 sequence: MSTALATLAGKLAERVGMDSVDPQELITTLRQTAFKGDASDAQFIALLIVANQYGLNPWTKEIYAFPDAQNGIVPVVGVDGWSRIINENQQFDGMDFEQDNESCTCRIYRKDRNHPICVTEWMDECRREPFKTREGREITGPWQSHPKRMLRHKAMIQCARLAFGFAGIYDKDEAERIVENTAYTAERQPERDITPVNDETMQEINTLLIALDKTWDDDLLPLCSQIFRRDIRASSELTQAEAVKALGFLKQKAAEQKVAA


Legend:
[1] = target: T1, Redβ K172A K172A (bacteriophage λ); experiment: fluorescence anisotropy; details: Anisotropy: 50 mM Tris-HCl pH 7.5, 1 mM DTT, 0.1 mg/mL BSA, 10 nM FAM48, 23 °C (Kd per monomer), gel assay: 10 µM Redβ, 50 µM nt of each oligo, PBS, 37 °C
[2] = target: T2, Redβ K36A K36A (bacteriophage λ); experiment: fluorescence anisotropy; details: Anisotropy: 50 mM Tris-HCl pH 7.5, 1 mM DTT, 0.1 mg/mL BSA, 10 nM FAM48, 23 °C (Kd per monomer), gel assay: 10 µM Redβ, 50 µM nt of each oligo, PBS, 37 °C
[3] = target: T3, Redβ K61A K61A (bacteriophage λ); experiment: fluorescence anisotropy; details: Anisotropy: 50 mM Tris-HCl pH 7.5, 1 mM DTT, 0.1 mg/mL BSA, 10 nM FAM48, 23 °C (Kd per monomer), gel assay: 10 µM Redβ, 50 µM nt of each oligo, PBS, 37 °C
[4] = target: T4, Redβ K214A K214A (bacteriophage λ); experiment: fluorescence anisotropy; details: Anisotropy: 50 mM Tris-HCl pH 7.5, 1 mM DTT, 0.1 mg/mL BSA, 10 nM FAM48, 23 °C (Kd per monomer), gel assay: 10 µM Redβ, 50 µM nt of each oligo, PBS, 37 °C
[5] = target: T5, Redβ K258A K258A (bacteriophage λ); experiment: fluorescence anisotropy; details: Anisotropy: 50 mM Tris-HCl pH 7.5, 1 mM DTT, 0.1 mg/mL BSA, 10 nM FAM48, 23 °C (Kd per monomer), gel assay: 10 µM Redβ, 50 µM nt of each oligo, PBS, 37 °C
[6] = target: T6, Redβ K111A K111A (bacteriophage λ); experiment: fluorescence anisotropy; details: Anisotropy: 50 mM Tris-HCl pH 7.5, 1 mM DTT, 0.1 mg/mL BSA, 10 nM FAM48, 23 °C (Kd per monomer), gel assay: 10 µM Redβ, 50 µM nt of each oligo, PBS, 37 °C
Redβ K11A = target: T7, Redβ K11A; experiment: EMSA; strands added sequentially; Anisotropy: 50 mM Tris-HCl pH 7.5, 1 mM DTT, 0.1 mg/mL BSA, 10 nM FAM48, 23 °C (Kd per monomer); gel assay: 10 µM Redβ, 50 µM nt of each oligo, PBS, 37 °C, 1% agarose at 22 °C; details: protein: recombinant; tags: 6xHis removed by thrombin; residual N-terminal GSH; label: 5'-Cy3 and 5'-Cy5; complementary 50-mers; annealed by protein
Redβ K111A = target: T8, Redβ K111A; experiment: as above; details: protein: recombinant; tags: 6xHis removed by thrombin; residual N-terminal GSH; label: 5'-Cy3 and 5'-Cy5; complementary 50-mers; annealed by protein
Redβ K69A = target: T9, Redβ K69A; experiment: as above; details: protein: recombinant; tags: 6xHis removed by thrombin; residual N-terminal GSH; label: 5'-Cy3 and 5'-Cy5; complementary 50-mers; annealed by protein

Row | Molecule | Kd [1] | Kd [2] | Kd [3] | Kd [4] | Kd [5] | Kd [6] | binding result (Redβ K11A) | binding result (Redβ K111A) | binding result (Redβ K69A)
1 | FAM48 48-mer ssDNA | 2600 nM | 530 nM | 390 nM | 310 nM | 110 nM | 2400 nM |  |  | 
2 | annealed duplex of Cy3 and Cy5 50-mers, strands added sequentially (dsDNA) DNA 1: GCGGATGGCTTAGAGCAGAATCGCCCTGCATAGCTCGATTTTTGCGGATG DNA 2: CCATCCGCAAAAATCGAGCTATGCAGGGCGATTCTGCTCTAAGCCATCCG |  |  |  |  |  |  | binds | no binding | binds
